From patent US20220062148

Experiments:
[1] = target: T1, Peptide sequence QGKKAPXX
T1 chain: QGKKAP

[2] = target: T2, Peptide sequence XIARQPWN
T2 chain: ARQPWN

[3] = target: T3, Peptide sequence FDNRVGKW
T3 chain: FDNRVGKW

[4] = target: T4, Peptide sequence WGNRSPLE
T4 chain: WGNRSPLE

[5] = target: T5, Peptide sequence QAVRPNGM
T5 chain: QAVRPNGM

B1: Atlantic cod trypsin I (protein)
chain: IVGGYECTKHSQAHQVSLNSGYHFCGGSLVSKDWVVSAAHCYKSVLRVRLGEHHIRVNEGTEQYISSSSVIRHPNYSSYNINNDIMLIKLTKPATLNQYVHAVALPTECAADATMCTVSGWGNTMSSVADGDKLQCLSLPILSHADCANSYPGMITQSMFCAGYLEGGKDSCQGDSGGPVVCNGVLQGVVSWGYGCAERDHPGVYAKVCVLSGWVRDTMANY
[1]
  Ion Precursor Intensities, 5′ incubation (multiplex substrate profiling, cleavage): 0
  Ion Precursor Intensities, 15′ incubation (multiplex substrate profiling, cleavage): 0
  Ion Precursor Intensities, 60′ incubation (multiplex substrate profiling, cleavage): 0
[2]
  Ion Precursor Intensities, 5′ incubation (multiplex substrate profiling, cleavage): 0
  Ion Precursor Intensities, 15′ incubation (multiplex substrate profiling, cleavage): 0
  Ion Precursor Intensities, 60′ incubation (multiplex substrate profiling, cleavage): 189000
[3]
  Ion Precursor Intensities, 5′ incubation (multiplex substrate profiling, cleavage): 0
  Ion Precursor Intensities, 15′ incubation (multiplex substrate profiling, cleavage): 0
  Ion Precursor Intensities, 60′ incubation (multiplex substrate profiling, cleavage): 165000
[4]
  Ion Precursor Intensities, 5′ incubation (multiplex substrate profiling, cleavage): 0
  Ion Precursor Intensities, 15′ incubation (multiplex substrate profiling, cleavage): 0
  Ion Precursor Intensities, 60′ incubation (multiplex substrate profiling, cleavage): 0
[5]
  Ion Precursor Intensities, 5′ incubation (multiplex substrate profiling, cleavage): 0
  Ion Precursor Intensities, 15′ incubation (multiplex substrate profiling, cleavage): 0
  Ion Precursor Intensities, 60′ incubation (multiplex substrate profiling, cleavage): 0
